Assay results as given in US20070185028A1, “Compositions and methods for treatment of protein misfolding and protein aggregation diseases” (priority 2004, published 2007).
Where “and” joins values, the source holds several entries; their conditions need not be identical. Equal entries are not always repeated.

Key:
Format in all cases: biochemical
Aβ1-42 = biological target: T1, Aβ1-42 (Homo sapiens, UniProt P05067); assay: Aβ1-42 fibril formation ThT fluorescence assay; conditions: for decrease in ThT fluorescence of Aβ1-42: 6 μM inhibitor, 30 μM Aβ1-42, 37° C., 48 hrs; for inhibition of Aβ fibrillation: peptide to substrate concentration of 1:5
T1 construct: Aβ1-42 (American Peptide); purchased American Peptide
Protocol: The effect of five synthesized αB crystallin peptides STSLSPFYLRPPSFLRAP (ST), DRFSVNLDVKHFS (DR), HGKHEERQDE (HG), LTITSSLSSDGV (LT), and ERTIPITRE (ER) on Aβ1-42 fibrillation was measured using the ThT fluorescence assay (FIG. 1). The formation and inhibition of Aβ1-42 fibrils was qualitatively verified by fluorescence and bright-field microscopy. The concentration and stoichometry of the peptides was varied relative to Aβ1-42 to establish a concentration curve. In addition, the effect of two known inhibitors of Aβ1-42 fibrillation (APS and NAP) and a control neuropeptide (AT1) with no fibril inhibition activity was measured and compared to the effect of the αB crystallin peptides on Aβ1-42 fibrillation. The ThT fluorescence of 30 μM Aβ1-42 alone incubated at 37° C. for 48 hrs increased from ˜350,000 to ˜450,000 RFU. […] In contrast, 6 μM DR, LT, and […] had no effect on Aβ1-42 fibril formation. […] Increasing the concentration of the DR peptide to 30 μM decreased the ThT fluorescence by approximately 50%. […] However, when the concentrations of the LT and ER peptides were increased to 150 μM, a 60-100% decrease in ThT fluorescence was measured. […] The negative control peptide AT1 had no effect on Aβ1-42 fibril formation even at a concentration as high as 300 μM.
The Thioflavin T (ThT) fluorescence of Aβ1-42 in the presence of varying concentrations of αB crystallin peptides and controls was measured. […] Addition of 6 μM DR, LT, and ER had no effect on the ThT fluorescence of Aβ1-42. When the concentration of the peptides was increased to 30 μM (1:1::peptide:Aβ1-42), the αB crystallin peptides ST, DR, HG decreased the ThT fluorescence by 50-100%. At the same concentrations, APS and NAP decreased the ThT fluorescence by 30-100%. When the concentration of the peptides was increased further to 150 μM ([…]), four of the five αB crystallin peptides DR, HG, LT, and ER decreased the ThT fluorescence by 58-100%. At the same concentrations, APS and NAP decreased the fluorescence by 28-100%. […] The formation and inhibition of Aβ fibrils was verified microscopically.
Thioflavin T (ThT) Assays. The effect of the five αB crystallin peptides (ST, DR, HG, LT, and ER) on Aβ1-42 fibril formation was measured using the ThT fluorescence assay (44-47) and compared with two known inhibitors of Aβ1-42 fibril formation (Tramiprosate and NAP)(34, 36) and a negative control neuropeptide Angiotensin 1 (AT1). Thioflavin T is a fluorescent dye that has a high affinity for amyloid fibrils and becomes fluorescent (excitation λ=450 nm, emission λ=486 nm) when bound to fibrils. For the Aβ1-42 assays, peptides and APS were dissolved to 2 mM in 0.25% DMSO and diluted accordingly, while Aβ1-42 was dissolved in 20 mM Tris-Cl, pH 7.40, and 100 mM NaCl. For the 5:1::inhibitor:Aβ1-42 assay, 10 μL of 450 μM peptide or APS was mixed with 10 μL of 90 μM Aβ1-42), 7 μL 20 mM Tris-Cl, 100 mM NaCl, pH 7.4 and 3 μL of 1 mM ThT. For the 1:1::inhibitor:Aβ1-42 assay, 10 μL of 90 μM peptide or APS was mixed with 10 μL of 90 μM Aβ(1-42), 7 μL 20 mM Tris-Cl, 100 mM NaCl, pH 7.4 and 3 μL of 1 mM ThT. For the 1:5::inhibitor:Aβ1-42 assay, 10 μL of 18 μM peptide or APS was mixed with 10 μL of 90 μM Aβ(1-42), 7 μL 20 mM Tris-Cl, 100 mM NaCl, pH 7.4 and 3 μL of 1 mM ThT. ThT fluorescence in relative fluorescence units (RFU) was measured using a Perkin Elmer Victor^3 V plate reader. Assays were performed in 384-well fluorescence plates in duplicates or triplicates. Samples were incubated at 37° C. for a total of 48 hours. ThT fluorescence was measured at 0, 24, and 48 hours. The effect of the peptides and APS was calculated as percentage fibril formation relative to Aβ1-42 alone (100%) at the end of 48 hours.

transthyretin (TTR) = biological target: T2, transthyretin (TTR) (Homo sapiens, UniProt P02766); assay: Transthyretin fibrillation ThT assay; conditions: for decrease in ThT fluorescence of TTR: 3.2 μM, 16 μM TTR, 37° C.
T2 construct: purchased Sigma-Aldrich
Protocol: The effect of the five αB crystallin peptides ST, DR, HG, LT, and ER on TTR fibrillation was measured using the ThT fluorescence assay (FIG. 26). The formation and inhibition of TTR fibrils was qualitatively verified by fluorescence and bright-field microscopy. The concentration of the peptides was varied relative to TTR to establish a concentration curve. In addition, the effect of a control neuropeptide (AT1) with no TTR fibril inhibition activity was measured and compared to the effect of the αB crystallin peptides on TTR fibril formation. The ThT fluorescence of 16 μM TTR alone incubated at 37° C. for 4 hrs, increased from ˜15,000 to ˜45,000 RFU. Addition of 3.2 μM αB crystallin peptides, ST, DR, LT, and HG decreased the ThT fluorescence of TTR by 15-70%. In contrast, 3.2 μM ER had no effect on TTR fibril formation. Increasing the concentration of the ER peptide to 16 μM decreased the ThT fluorescence of TTR by 60%. The negative control peptide AT1 had no effect on TTR fibrillation even at a concentration as high as 160 μM. All five αB crystallin peptides inhibited TTR fibrillation at sub-stoichometric and stoichometric concentrations (3.2 μM and 16 μM).
The Thioflavin T (ThT) fluorescence of TTR in the presence of varying concentrations of αB crystallin peptides and controls was measured. […] When the concentration of the peptides was increased to 16 μM (1:1::peptide:TTR), the αB crystallin peptides ST, DR, HG, LT and ER decreased the ThT fluorescence by 8-72%. When the concentration of the peptides was increased further to 80 μM ([…]), all of the five αB crystallin peptides ST, DR, HG, LT, and ER decreased the ThT fluorescence by 40-70%. […] The formation and inhibition of TTR fibrils was verified microscopically.
Transthyretin fibrillation ThT assays were performed as described previously. Hurshman et al., Biochemistry 43:7365-81, 2004; O'Nuallain and Wetzel, Proc Natl Acad Sci USA 99:1485-90, 2002. Peptides were dissolved to 2 mM in 0.25% DMSO and diluted accordingly, while TTR was dissolved in 200 mM KCl, 2 mM EDTA, 5 mM PBS, 200 mM sodium acetate, pH 4.4. For the 5::peptide:TTR assay, 10 μL of 160 μM peptide was mixed with 10 μL of 32 μM TTR, and 1 μL of 1 mM ThT. For the 1:1::peptide:TTR assay, 10 μL of 32 μM peptide was mixed with 10 μL of 32 μM TTR and 1 μL of 1 mM ThT. For the 1:5::peptide:TTR assay, 10 μL of 6.4 μM peptide was mixed with 10 μL of 32 μM TTR and 1 μL of 1 mM ThT. ThT fluorescence was measured using a Perkin Elmer Victor^3 V plate reader. Assays were performed in 384-well fluorescence plates in duplicates or triplicates. Samples were incubated at 37° C. ThT fluorescence was measured continuously for 150 minutes. The effect of the peptides and APS was calculated as percentage fibril formation relative to TTR alone (100%) at the end of 150 minutes.

Aβ = Aβ (Homo sapiens, UniProt P05067); assay: Aβ Thioflavin T fluorescence (fibrillization, 50° C., 72 hours); conditions: Thioflavin T; 1:10 Aβ:peptide; 50° C., 72 hours
Protocol: Aβ Thioflaviin T fluorescence. Aβ fibrils were grown in the presence and absence of αB crystallin and peptides in conditions similar to that previously described for the presence of αB crystallin. Bakthisaran et al., Biochem J, 2005. Peptides were dissolved to 9.1 mM in trifluorethanol (TFE) and diluted to 0.91 mM stock solutions in 50 mM PBS, 100 mM NaCl, pH 7.4. 3.5 mg of Thioflavin T was dissolved in 100 μl of 50 mM Glycine pH 8.5. A stock solution of 1 mg/ml (0.22 mM) Aβ was prepared. 20 μl Aβ, 50 μl chaperone, 2 μl Thioflavin T was mixed with 28 μl 50 mM PBS, 100 mM NaCl, pH 7.4. Fluorescence was read using a Beckman Coultier DTX 880 multimode detector. Samples were heated at 50° C. for 72 hours and fluorescence was read again.
(§1) The fibrillization of Aβ was measured as fluorescence of the fluorescent dye Thioflavin T from solutions containing 1:10 monomeric molar ratio of Aβ:peptide. In the absence of Aβ fibrils, Thioflavin T had little or no fluorescence. The fluorescence of the Thioflavin T bound to Aβ fibrils in the absence of any other molecule after 72 hrs was set to 100%. […] Fibril formation=ΔfluorescenceAβ (with chaperone)*100/ΔfluorescenceAβ (without chaperone).

γD crystallin = biological target: T3, γD crystallin (Homo sapiens, UniProt P07320); assay: γD crystallin Thioflavin T fluorescence (fibrillization); conditions: 1:1 γD crystallin:peptide
T3 sequence (P07320 2-174): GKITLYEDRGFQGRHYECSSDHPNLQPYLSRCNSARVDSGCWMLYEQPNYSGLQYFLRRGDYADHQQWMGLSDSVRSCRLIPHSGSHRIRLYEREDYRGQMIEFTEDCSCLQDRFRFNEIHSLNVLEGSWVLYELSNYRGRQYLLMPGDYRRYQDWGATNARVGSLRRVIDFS
Protocol: γD crystallin Thioflaviin T fluorescence. γD crystallin fibrils were formed in a similar way to that of γ crystalline. Meehan et al., J Biol Chem 279: 3413-3419, 2004. Peptides were dissolved to 9.1 mM in TFE and diluted to 0.91 mM stock solutions in 10% TFE, pH 2.0. 3.5 mg of Thioflavin T was dissolved in 100 μl of 50 mM Glycine pH 8.5. A stock solution of 1 mg/ml (0.22 mM) Aβ was prepared. 20 μl Aβ, 5 μl chaperone, 2 μl Thioflavin T was mixed with 73 μl 10% TFE, pH 2.0. Fluorescence was read using a Beckman Coultier DTX 880 multimode detector. Samples were heated at 50° C. for 72 hours and fluorescence was read again.
as §1, with “γD crystallin” for “Aβ”, “1:1” for “1:10”, “γD crystallin:peptide.” for “Aβ:peptide.”, “fibrils” for “Aβ fibrils,”, “formation=ΔfluorescenceγD crystallin” for “formation=ΔfluorescenceAβ”, “chaperone)*100/ΔfluorescenceγD crystallin” for “chaperone)*100/ΔfluorescenceAβ”

| Compound | decrease in ThT fluorescence of Aβ1-42 (Aβ1-42) | inhibition of Aβ fibrillation (Aβ1-42) [%] | decrease in ThT fluorescence of TTR (transthyretin (TTR)) | inhibition of TTR fibrils, HG derived peptides (transthyretin (TTR); 1:1 ratio) [%] | Δfluorescence (Aβ) (Aβ) | effect on the fibrillization of γD crystallin (ranking) (γD crystallin; 72 hrs) | Δfluorescence (γD crystallin) (γD crystallin; Thioflavin T, 50° C., 72 hours) |
| --- | --- | --- | --- | --- | --- | --- | --- |
| NCCCS(=O)(=O)O [APS, 3-aminopropanesulfonic acid, reference compound] | ~40% and 38% | ~38 | did not have any effect | – | – | – | – |
| HEER | – | – | – | ~100 | – | – | – |
| NAPVSIPQ [reference compound] | ~40% and 38% | ~38 | did not have any effect | – | – | – | – |
| αB crystallin: wild type recombinant human αB crystallin, small heat shock protein and molecular chaperone | – | – | – | – | 318,471,040 | weakest effect | 1,079,141,056 |
